Measurements taken from patent US20240299561A1, “HISTIDINE-SELECTIVE POLYMER REAGENTS” (Nektar Therapeutics, priority 2021, published 2024).
Several values for one entry are separate records, joined by “and”; a condition that tells them apart may be missing. Identical values can stand only once.

Assays:
[1] = Hydrolytic stability of PEG conjugates with α-CBZ-histidine in PBS buffer, pH 7.4, 37° C. (HPLC)
Procedure: The reaction mixture was incubated at 37° C. and periodically analyzed by HPLC.

[2] = Reaction of histidine-linked conjugates with hydroxylamine (release of α-CBZ-His); conditions: pH 7.3, 25° C., at approximately 42 hours
Text: FIGS. 14A and 14B provide further evidence of the histidine-selectivity of exemplary polymer reagents provided herein, as illustrated by reaction of their corresponding histidine-linked conjugates with hydroxylamine. The data described below is representative of an indirect method for evaluating covalent attachment of a polymer reagent as provided herein with a histidine residue of an amino acid, peptide, polypeptide or other active histidine containing molecule, by displacement of the histidine-attached molecule resulting from reaction of the histidine-linked polymer conjugate with hydroxylamine.
More particularly, FIG. 14A is a plot illustrating reaction of a histidine conjugate prepared by reaction of Reagent 1 with model compound, α-CBZ-His, with hydroxylamine at pH 7.4, 25° C. […] Histidine conjugates such as the illustrative conjugates tested, when treated with hydroxylamine, undergo a reverse reaction such that the unconjugated histidine compound is released. […] By approximately 22 hours, 100% of the conjugate has disappeared with release of α-CBZ-His.

COCCOCCOCCOCCOCCOCCOCCOCCOCCOCCOCCOCCOCCOCCOCCOCCOCCOCCOCCOCCOCCOCCOCCOCCOCCOCCOCCOCCOCCOCCOCCOCCOCCOCCOCCOCCOCCOCCOCCOCCOCCOCCOCCOCCOCCOCCOCCOCCOCCOCCOCCOCCOCCOCCOCCOCCOCCOCCOCCOCCOCCOCCOCCOCCOCCOCCOCCOCCOCCOCCOCCOCCOCCOCCOCCOCCOCCOCCOCCOCCOCCOCCOCCOCCOCCOCCOCCOCCOCCOCCOCCOCCOCCOCCOCCOCCOCCOCCOCCOCCOCCOCCOCCOCCOCCOCCOCCOCCOCCOCCOCCOCCOCCOCCN(C)C(=O)n1cnc(C[C@@H](NC(=O)OCc2ccccc2)C(=O)O)c1 [Conjugate 10, mPEG-N(CH3)—CO-α-CBZ-Histidine, 5 kDa]
degree of hydrolytic stability relative to the other conjugates tested [1]: highest degree of hydrolytic stability | % Hydrolysis at day 10 [1]: 1.8% and 1.9%

mPEG-N(CH2CF3)—CO-α-CBZ-Histidine, 5 kDa [Conjugate 14]
degree of hydrolytic stability relative to the other conjugates tested [1]: moderate degree of hydrolytic stability

mPEG-Piperazine-CO— α-CBZ-Histidine, 5 kDa [Conjugate 11]
percent of intact conjugate remaining [2]: 4% | degree of hydrolytic stability relative to the other conjugates tested [1]: moderate degree of hydrolytic stability | % Hydrolysis at day 10 [1]: 15.6%
